Legend:
[1] = biological target: T1, phosphorylated Aurora-A CAKD (Homo sapiens, UniProt O14965, C290A/C393A); experiment: ITC, CEP192 with phosphorylated Aurora-A CAKD; assay type: binding; conditions: ratio of Kd, phosphorylated vs unphosphorylated
T1 construct: 10 nM Aurora-A 122–403 C290A C393A phosphorylated protein; His (N, cleaved yes); made in house; host or cells: E. coli B834 (no lambda phosphatase)
T1 sequence (O14965 122-403 C290A/C393A): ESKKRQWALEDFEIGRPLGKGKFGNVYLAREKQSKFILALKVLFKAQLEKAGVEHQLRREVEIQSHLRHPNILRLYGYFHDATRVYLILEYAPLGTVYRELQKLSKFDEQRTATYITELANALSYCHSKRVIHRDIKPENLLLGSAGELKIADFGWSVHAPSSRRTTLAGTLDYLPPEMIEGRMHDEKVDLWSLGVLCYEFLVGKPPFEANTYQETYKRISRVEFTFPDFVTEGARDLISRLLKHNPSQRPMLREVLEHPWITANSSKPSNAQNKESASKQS
Procedure: (§1) Thermodynamic information was established using the ITC200 microcalorimeter (MicroCal, Northampton, MA). Proteins were dialysed overnight into 20 mM tris pH 7.5, 200 mM NaCl, 10% glycerol, 5 mM magnesium chloride (CEP192 constructs/mutants and Aurora-A 122–403 mutants). Experiments were carried out at 25 °C. The syringe contained 70 μl of 250 μM Aurora-A 122–403 (D274N C290A C393A or mutant). About 2 μl injections were applied every 180 s. The cell contained 205 μl of 25 μM CEP192 construct/mutant. Microcal Origin software version 7.0 was used to determine the dissociation constants (Kd). All measurements were repeated at least twice.

[2] = biological target: Aurora-A KD F165D/R205A; experiment: ITC, CEP192 with Aurora-A KD F165D/R205A; assay type: binding, human; conditions: 25 °C, pH 7.5
Procedure: as §1

[3] = biological target: T2, unphosphorylated Aurora-A CAKD (Homo sapiens, UniProt O14965, C290A/C393A); experiment: Fluorescence anisotropy competition with FAM-CEP192 501-533, unphosphorylated Aurora-A; assay type: binding
T2 construct: 10 μM Aurora-A kinase domain (phosphorylated or unphosphorylated C290A C393A 122–403); His (N, cleaved yes); made in house; host or cells: E. coli RIL, co-expressed with lambda phosphatase
T2 sequence (O14965 122-403 C290A/C393A): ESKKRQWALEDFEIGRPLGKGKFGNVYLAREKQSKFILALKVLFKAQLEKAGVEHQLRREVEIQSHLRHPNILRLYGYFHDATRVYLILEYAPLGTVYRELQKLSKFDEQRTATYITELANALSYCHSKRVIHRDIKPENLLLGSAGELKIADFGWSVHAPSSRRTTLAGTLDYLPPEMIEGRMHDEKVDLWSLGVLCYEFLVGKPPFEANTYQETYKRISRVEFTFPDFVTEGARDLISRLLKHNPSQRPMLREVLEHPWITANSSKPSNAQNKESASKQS
Procedure: (§2) Assays were performed in 25 mM HEPES pH 7.5, 150 mM NaCl, 2 mM DTT, 5 mM MgCl2, 0.01% Tween 20. For CEP192 and TPX2 competition assays 10 μM Aurora-A kinase domain (phosphorylated or unphosphorylated C290A C393A 122–403) was preincubated on ice with 100 nM FAM-TPX2 7-43 or 100 nM FAM-CEP192 501–533. For TACC3 competition, due to weaker binding, 25 μM Aurora-A kinase domain (phosphorylated or unphosphorylated C290A C393A 122–403) was preincubated with 100 nM FAM-TACC3 522-536. Serial dilutions of competitor (CEP192) were performed in triplicate into a low volume 384-well black plate, before the premixed Aurora-A and tracer were added. A control row included no tracer. Plates were left incubating for 1 h at room temperature before the fluorescence anisotropy was measured using a HIDEX plate reader, with excitation at 485 nm and emission at 535 nm. For direct binding experiments, the assay was performed as above, but the Aurora-A (122–403 C290A C393A or point mutants) was diluted across the plate from high to low concentration, before the addition of 50 nM tracer (FAM-CEP192 501–533) to three replicate rows. Buffer only was added to the control row.
(§3) Fluorescence anisotropy data were processed using Microsoft Excel to calculate intensity and anisotropy using the equation listed in (Yeo et al, [2013]). The IC50 and Kd values were calculated using Origin (OriginLab) where the data fitted to a sigmoid and are summarised in Appendix Table S3.

[4] = biological target: T1, phosphorylated Aurora-A CAKD; experiment: Fluorescence anisotropy competition with FAM-CEP192 501-533, phosphorylated Aurora-A; assay type: binding; conditions: competition with 100 nM FAM-CEP192 501-533, 10 μM phosphorylated Aurora-A CAKD, n = 3
Procedure: as §2, §3

[5] = biological target: T2, unphosphorylated Aurora-A CAKD; experiment: Fluorescence anisotropy competition with FAM-TPX2 7-43; assay type: binding; conditions: for IC50: competition with 100 nM FAM-TPX2 7-43, 10 μM unphosphorylated Aurora-A CAKD, n = 3 (Appendix Fig. S4E)
Procedure: as §2, §3

[6] = biological target: T3, Aurora-A CAKD (Homo sapiens, UniProt O14965, C290A/C393A); experiment: Fluorescence anisotropy competition with FAM-TACC3 522-536; assay type: binding; conditions: in words
T3 construct: 25 μM Aurora-A kinase domain (phosphorylated or unphosphorylated C290A C393A 122–403); His (N, cleaved yes); made in house; host or cells: E. coli
T3 sequence (O14965 122-403 C290A/C393A): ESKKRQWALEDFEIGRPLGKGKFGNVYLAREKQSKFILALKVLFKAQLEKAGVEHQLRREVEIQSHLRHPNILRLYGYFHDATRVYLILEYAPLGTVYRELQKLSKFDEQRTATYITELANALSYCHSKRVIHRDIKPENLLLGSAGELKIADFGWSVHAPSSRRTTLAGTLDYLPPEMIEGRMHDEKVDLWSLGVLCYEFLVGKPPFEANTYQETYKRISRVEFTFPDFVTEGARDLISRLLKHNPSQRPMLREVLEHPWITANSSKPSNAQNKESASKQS
Procedure: as §2, with “For direct binding experiments, the assay was performed as above, but the Aurora-A (122–403 C290A C393A or point mutants) was diluted across the plate from high to low concentration, before the addition of 50 nM tracer (FAM-CEP192 501–533) to three replicate rows. Buffer only was added to the control row.” left out
as §3

[7] = biological target: T1, phosphorylated Aurora-A CAKD; experiment: ADP-Glo kinase assay, kemptide substrate; assay type: biochemical; conditions: ADP-Glo, phosphorylated Aurora-A CAKD, kemptide; in words
Procedure: Reactions were initiated by the addition of 10 μM ATP and 100 μM kemptide as substrate (Cambridge Bioscience Ltd). The reactions were incubated at room temperature for 60 min before 5 μl was transferred into 5 ul of ADP-Glo Reagent (Promega) in a 384-well low volume low binding plate (Greiner Bio-one). After a further 40 min at room temperature, 10 μl of kinase detection reagent was added to each well, and the reaction was allowed to incubate for an additional 30 min. Luminescence was measured on a HIDEX Sense plate reader (HIDEX) using a 1 s integration time. Control data was subtracted from the luminescence and three repeats were averaged before being fitted to a sigmoidal plot using Origin (OriginLab), where IC50 and EC50 values were calculated.

difference in affinity compared to unphosphorylated Aurora-A [1]: around a twofold difference in affinity
Kd [2]: 26 ± 16 µM
IC50 ([3]; competition with 100 nM FAM-CEP192 501-533, 10 μM unphosphorylated Aurora-A CAKD, n = 3): 1.42 µM
ability to compete for binding, phosphorylated vs unphosphorylated Aurora-A ([3]; competition with FAM-CEP192 501-533, in words): No significant difference
IC50 [4]: 0.63 µM
IC50 [5]: 3.24 µM
IC50 ([5]; listed as WT CEP192): ~4 µM
competition for binding with FAM-TPX2 7-43 ([5]; in words, Aurora-A CAKD): competed for binding with FAM-TPX2_7-43
B1: CEP192 468-533: recombinant human CEP192 aa 468–533, minimal binding region (protein)
chain: PQSVVYQNEEGRWVTDLAYYTSFNSKQNLNVSLSDEMNEDFRSGSEAFDLIAQDEEEFNKEHQFIQ
modifications: left off: His6, N-terminal, cleaved | SUMO, N-terminal, cleaved
competition for binding with FAM-TACC3 522-536 [6]: competed for binding with FAM-TACC3_522-536
effect on Aurora-A kinase activity [7]: partially inhibited the activity

Source: PMC11574021, “CEP192 localises mitotic Aurora-A activity by priming its interaction with TPX2” (The EMBO Journal, 2024)
